Values belong to the substance of their own block, whether it stands above or below them.
Assays:
[1] = target: wild-type POT1-TPP1 complex (POT1-TPP1N) (human) (UniProt Q9NUX5)
[2] = target: POT1-TPP1 E215K complex (wild-type POT1 with TPP1N E215K) (human) (UniProt Q9NUX5)
[3] = target: POT1-TPP1 E169K complex (wild-type POT1 with TPP1N E169K) (human) (UniProt Q9NUX5)
[4] = target: GFP-TPP1-OB-LacI (human); assay: LacI-LacO tethering assay (co-localisation of GFP and mCherry foci); GFP-TPP1-OB-LacI tethered to a single LacO array on chromosome 1 of U2OS 2-6-3 cells, co-transfected with mCherry-hTERT and hTR; fixed cells, intrinsic fluorescence; fraction of nuclei with co-localised foci (n = 3, 117-176 nuclei total)
[5] = target: POT1-TPP1 E215K complex (wild-type POT1 with TPP1N E215K) (human) (UniProt Q9NUX5); remark: listed apart in the source
[6] = target: wild-type POT1-TPP1 complex (POT1-TPP1N) (human) (UniProt Q9NUX5); remark: listed apart in the source
[7] = target: POT1-TPP1 E169K complex (wild-type POT1 with TPP1N E169K) (human) (UniProt Q9NUX5); remark: listed apart in the source

Chain of GFP-TPP1-OB-LacI (human) (Q96AP0 whole entry): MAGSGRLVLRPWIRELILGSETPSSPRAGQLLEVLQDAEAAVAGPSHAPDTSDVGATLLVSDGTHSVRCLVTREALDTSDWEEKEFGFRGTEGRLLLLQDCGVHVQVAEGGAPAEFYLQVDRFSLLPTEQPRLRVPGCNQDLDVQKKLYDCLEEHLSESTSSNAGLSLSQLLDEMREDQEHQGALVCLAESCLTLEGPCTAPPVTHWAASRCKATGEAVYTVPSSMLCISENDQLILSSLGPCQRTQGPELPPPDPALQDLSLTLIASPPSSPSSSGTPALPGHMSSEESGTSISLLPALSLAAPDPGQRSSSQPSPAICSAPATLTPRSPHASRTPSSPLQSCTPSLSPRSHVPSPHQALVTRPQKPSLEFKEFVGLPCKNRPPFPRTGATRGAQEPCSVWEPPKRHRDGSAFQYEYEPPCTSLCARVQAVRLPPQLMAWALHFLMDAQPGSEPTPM

Substance: hTERT R142E telomerase (ZZ-TEV-3xFlag-hTERT R142E with hTR) (from UniProt O14746 1-1132) (enzyme)
RAP stimulation by PT % of WT (direct telomerase activity assay) [1]: 103 % of WT

Substance: hTERT R72E telomerase (ZZ-TEV-3xFlag-hTERT R72E with hTR) (from UniProt O14746 1-1132) (enzyme)
RAP stimulation by PT % of WT (direct telomerase activity assay) [1]: 91 % of WT

Substance: hTERT K78E telomerase (ZZ-TEV-3xFlag-hTERT K78E with hTR) (from UniProt O14746 1-1132) (enzyme)
RAP stimulation by POT1-TPP1 relative to wild-type telomerase and wild-type TPP1 (direct telomerase activity assay) [2]: 98%
RAP stimulation by POT1-TPP1 relative to wild-type telomerase and wild-type TPP1 (direct telomerase activity assay) [3]: < 24%
RAP stimulation by PT % of WT (direct telomerase activity assay) [1]: 68 % of WT

Substance: hTERT K78A telomerase (ZZ-TEV-3xFlag-hTERT K78A with hTR) (from UniProt O14746 1-1132) (enzyme)
RAP stimulation by PT % of WT (direct telomerase activity assay) [1]: 88 % of WT

Substance: mCherry-hTERT K78E (with hTR) (from UniProt O14746 1-1132) (enzyme)
fraction of TPP1-OB-fold domain foci showing telomerase signal [4]: 55%

Substance: hTERT K78E;R132E telomerase (ZZ-TEV-3xFlag-hTERT with hTR) (from UniProt O14746 1-1132) (enzyme)
RAP stimulation by POT1-TPP1 relative to wild-type telomerase and wild-type TPP1 (direct telomerase activity assay) [2]: < 23%
RAP stimulation by POT1-TPP1 relative to wild-type telomerase and wild-type TPP1 (direct telomerase activity assay) [3]: < 23%
RAP stimulation by PT % of WT (direct telomerase activity assay) [1]: 18 % of WT

Substance: mCherry-hTERT wild type (with hTR) (from UniProt O14746 1-1132) (enzyme)
fraction of nuclei with co-localisation [4]: 90%

Further lines, results first:

RAP stimulation by PT % of WT (direct telomerase activity assay) [1]: 55 % of WT
Substance: hTERT R120E telomerase (ZZ-TEV-3xFlag-hTERT R120E with hTR) (from UniProt O14746 1-1132) (enzyme)

RAP stimulation by PT % of WT (direct telomerase activity assay) [1]: 61 % of WT
Substance: hTERT R87E;R91E;K94E telomerase (ZZ-TEV-3xFlag-hTERT with hTR) (from UniProt O14746 1-1132) (enzyme)

RAP stimulation by PT % of WT (direct telomerase activity assay) [1]: 38 % of WT
Substance: hTERT K78E;R120E telomerase (ZZ-TEV-3xFlag-hTERT with hTR) (from UniProt O14746 1-1132) (enzyme)

RAP stimulation by POT1-TPP1 relative to wild-type telomerase and wild-type TPP1 (direct telomerase activity assay) [2]: < 23%
RAP stimulation by POT1-TPP1 relative to wild-type telomerase and wild-type TPP1 (direct telomerase activity assay) [3]: < 23%
RAP stimulation by PT % of WT (direct telomerase activity assay) [1]: 24 % of WT
Substance: hTERT R132E telomerase (ZZ-TEV-3xFlag-hTERT R132E with hTR) (from UniProt O14746 1-1132) (enzyme)

fraction of TPP1-OB-fold domain foci showing telomerase signal [4]: 30%
Substance: mCherry-hTERT R132E (with hTR) (from UniProt O14746 1-1132) (enzyme)

RAP stimulation by POT1-TPP1 relative to wild-type telomerase and wild-type TPP1 (direct telomerase activity assay) [2]: 78%
RAP stimulation by POT1-TPP1 relative to wild-type telomerase and wild-type TPP1 (direct telomerase activity assay) [3]: < 24%
Substance: wild-type telomerase (ZZ-TEV-3xFlag-hTERT with hTR) (from UniProt O14746 1-1132) (enzyme)

RAP stimulation by PT % of WT (direct telomerase activity assay) [1]: 44 % of WT
RAP stimulation by POT1-TPP1 relative to wild-type telomerase with wild-type POT1-TPP1 (direct telomerase activity assay) [5]: 37%
POT1-TPP1 RAP stimulation compared to wild-type telomerase (direct telomerase activity assay) [6]: 61%
RAP stimulation by POT1-TPP1 relative to wild-type telomerase with wild-type POT1-TPP1 (direct telomerase activity assay) [7]: 28%
Substance: hTERT V144M telomerase (ZZ-TEV-3xFlag-hTERT V144M with hTR) (from UniProt O14746 1-1132) (enzyme)

Reference: PMC4359370
